Source: US20200353078A1 (AstraZeneca / MedImmune, published 2020)
Where a chain is given by its changes, count along the chain named.

T1: His10/Avi Human IL33-01 (human)
T1 chain: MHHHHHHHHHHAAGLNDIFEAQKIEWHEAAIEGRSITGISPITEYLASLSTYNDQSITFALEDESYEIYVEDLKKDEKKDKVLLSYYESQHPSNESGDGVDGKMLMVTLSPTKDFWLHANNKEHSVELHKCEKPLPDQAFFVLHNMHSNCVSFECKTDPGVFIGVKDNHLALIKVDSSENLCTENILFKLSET

T2: Human IL-33 (Axxora/Adipogen AG-40B-0038) (human, UniProt O95760 112-270, limits assumed)
T2 sequence (looked up): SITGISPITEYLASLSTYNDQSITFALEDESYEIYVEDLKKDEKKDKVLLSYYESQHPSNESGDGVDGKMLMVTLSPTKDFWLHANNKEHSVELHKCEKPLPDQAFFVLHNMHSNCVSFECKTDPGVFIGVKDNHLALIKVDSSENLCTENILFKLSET

T3: Human IL-33 Flag®His (human)
T3 construct: Mature IL-33 with C-terminal FLAG 10xHis tag, from E. coli; biotinylated via free cysteines where used biotinylated; also called Mature Human IL-33_FH; human IL-33 FH
T3 chain: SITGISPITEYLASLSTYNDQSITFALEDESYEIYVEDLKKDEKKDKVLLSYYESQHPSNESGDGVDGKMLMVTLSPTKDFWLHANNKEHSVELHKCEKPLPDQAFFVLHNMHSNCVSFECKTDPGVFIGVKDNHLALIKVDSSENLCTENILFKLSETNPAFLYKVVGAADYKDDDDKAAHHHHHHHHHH

T4: Cynomolgus IL-33 Flag®His (cynomolgus monkey)
T4 construct: C-terminal FLAG 10xHis tag, E. coli; also called Mature Cynomolugus IL-33; cyno IL-33 FH
T4 chain: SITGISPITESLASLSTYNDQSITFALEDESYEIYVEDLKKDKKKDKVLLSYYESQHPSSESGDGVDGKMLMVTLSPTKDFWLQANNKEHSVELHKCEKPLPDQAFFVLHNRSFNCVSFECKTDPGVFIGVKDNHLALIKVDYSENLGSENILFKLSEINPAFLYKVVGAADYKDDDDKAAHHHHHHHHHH

T5: Mouse IL-33 Flag®His (mouse)
T5 construct: C-terminal FLAG 10xHis tag, E. coli; also called Mature Mouse IL-33_FH; mouse IL-33 FH
T5 chain: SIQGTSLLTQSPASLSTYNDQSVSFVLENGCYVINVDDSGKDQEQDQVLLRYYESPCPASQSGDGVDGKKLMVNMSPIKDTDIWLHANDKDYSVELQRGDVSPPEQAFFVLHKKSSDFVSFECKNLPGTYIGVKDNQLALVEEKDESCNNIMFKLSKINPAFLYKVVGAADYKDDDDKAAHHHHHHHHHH

T6: Full-length human IL-33 (amino acids 1-270), HEK293-EBNA cell lysate (human, UniProt O95760 1-270)
T6 sequence (looked up): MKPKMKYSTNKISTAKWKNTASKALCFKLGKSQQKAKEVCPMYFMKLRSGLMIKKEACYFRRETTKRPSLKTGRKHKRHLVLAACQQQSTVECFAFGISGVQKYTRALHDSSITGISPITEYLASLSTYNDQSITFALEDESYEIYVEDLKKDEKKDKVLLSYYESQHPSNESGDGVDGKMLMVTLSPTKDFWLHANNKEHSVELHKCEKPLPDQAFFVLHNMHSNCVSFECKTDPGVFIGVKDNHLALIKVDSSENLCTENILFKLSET

T7: His10/Avi Cyno IL-33 (cynomolgus monkey)
T7 construct: also called Cynomolgus 10His Avitag IL-33; biotinylated His Avi cynomolgus IL-33
T7 chain: T1 chain with E77K, N94S, H118Q, M146R, H147S, S148F, S177Y, C182G, T183S, T193I

B1: 33_640237-2 IgG1 (antibody, V domains shown)
VH: EVQLLESGGGLVQPGGSLRLSCAASGFTFSSYAMSWVRQAPGKGLEWVSGIADDFTSTYYADPVKGRFTISRDNSKNTLYLQMNSLRAEDTAVYYCARDLWMMNYAGGLRYPFGYWGQGTMVTVSS
VL: SYVLTQPPSVSVSPGQTASITCSGERMGDKYAAWYQQKPGQSPVLVIYRDTKRPSGIPERFSGSNSGNTATLTISGTQAMDEADYYCGVLKQDTGVFGGGTKVTVL
B2: IL330099 IgG (antibody, V domains shown)
VH: QVQLQQSGAEVKKPGASVKVSCKASGYTFTSFYMNWVRQAPGQGLEWMGIISPRGGTTSYAQNFQGRVTMTRDTSTSTVYMELSGLRSDDTAVYYCATESFYYGSGTYSGDYYLYSGMADWGKGTLVTVSS
VL: SSELTQDPAVSAALGQTVRITCQGDSLRSYYASWYQQKPGQAPVLVIYGKNDRPSGIPDRFSGSSSGNTASLTITGAQAEDEADYYCNSRDSSGNHVVFGGGTKLTVL
notes: IgG1 or IgG1-TM
B3: IL330149 IgG (antibody, V domains shown)
VH: EVQLLESGGGLVQPGGSLRLSCAASGFTFSSYAMSWVRQAPGKGLEWVSAISGSGGSTYYADSVKGRFTISRDNSKNTLYLQMNSLRAEDTAVYYCVRTLAYSTSWFFDYWGRGTLVTVSS
VL: SYELTQPPAVSVSPGQTARITCSGDALPKKYAYWYQQKSGQAPVLVIYEDAKRPSGIPERFSGSSSGTMATLTVSGAQVEDEADYYCYSTDSSGPVFGGGTKLTVL
notes: IgG1 or IgG1-TM; also called IL33149
B4: IL330020 IgG1 (antibody, V domains shown)
VH: QVQLVQSGAEVKKPGASVKVSCKASGYTFTSYGISWVRQAPGQGLEWMGWISDYQGYTKYAEKFQGRVTMTTDTSTNTAYMELRSLRSDDTAVYYCARLYSSGWIRQYHFDYWGRGTLVTVSS
VL: SYELTQPPSVSVSPGQTASITCSGDNLKDKYVSWYQQKPGQAPVLVLYQDRKRPSGIPERFSGSNSGNTATLTISGTQAMDEADYYCQAWDSGTAFGGGTKVTVL
notes: Human IgG1, lambda constant
B5: 33_640087-7 IgG1 (antibody, V domains shown)
VH: EVQLLESGGGLVQPGGSLRLSCAASGFTFSSYAMSWVRQAPGKGLEWVSGISAIDQSTYYADSVKGRFTISRDNSKNTLYLQMNSLRAEDTAVYYCARQKFMQLWGGGLRYPFGYWGQGTMVTVSS
VL: B1 VL with R26G, L90I, K91Q, Q92D, D93N
notes: IgG1
B6: 33_640201 IgG1 (antibody, V domains shown)
VH: B5 VH with G50S, S52D, D55S, Q56S, A97S
VL: B1 VL with R49Q, M80V
notes: IgG1; also called ZZ1JMY-H09

How the values were obtained:
His10/Avi Human IL33-01 [1] = biological target: T1, His10/Avi Human IL33-01; test: cell-based or functional assay
[2] = biological target: T2, Human IL-33 (Axxora/Adipogen …); test: cell-based or functional assay
Human IL-33 Flag®His [3] = biological target: T3, Human IL-33 Flag®His; test: ELISA, biotinylated antigen on streptavidin plate, anti-human IgG HRP
Protocol: (§1) 96-well Greiner polypropylene plates (Greiner, 650201) were used for dilution preparation. Generally, each dilution was prepared in duplicate. IgG dilutions were allowed to block in PBS-M for 1 hour at room temperature before being used directly in ELISA experiments.
(§2) Streptavidin plates (Thermo Scientific, AB-1226) were coated with biotinylated antigen at 0.5 μg/ml in PBS and incubated overnight at 4° C. Plates were washed 3× with PBS and blocked with 300 μl/well blocking buffer (PBS-M) for 1 hour. Plates were washed 1× with PBS and blocked samples added, 50 μl/well for 1 hour at room temperature. […] Plates were washed 3× with PBS-T and developed with TMB, 50 μl/well (Sigma, T0440). The reaction was quenched with 50 μl/well 0.1M H2504 before reading on an EnVision™ plate reader, or similar equipment, at 450 nm.
(§3) Species cross-reactivity of anti-IL-33 antibodies was determined using a plate-based ELISA. Streptavidin plates (Thermo Scientific, AB-1226) were coated with biotinylated antigen at 0.5 μg/ml in PBS. Binding of purified IgG preparations was detected with anti-human IgG HRP (Sigma, A0170).

[4] = biological target: T4, Cynomolgus IL-33 Flag®His; test: as above
Protocol: as §1, §2, §3

Mouse IL-33 Flag®His = biological target: T5, Mouse IL-33 Flag®His; test: as above
Protocol: as §1, §2, §3

Human IL-33 Flag®His [5] = biological target: T3, Human IL-33 Flag®His; test: cell-based or functional assay
Human IL-33 Flag®His [6] = biological target: T3, Human IL-33 Flag®His; test: HTRF competition, IgG titrated against biotinylated human ST2-Fc
Protocol: The ability of anti-IL-33 antibodies to inhibit the binding of FLAG®-His tagged IL-33 to the ST2 receptor was assessed in a biochemical HTRF® (Homogeneous Time-Resolved Fluorescence, Cisbio International) competition assay, the principles of which are described above.
Activity of purified IgG preparations were determined by competing a dilution series of the purified IgG against biotinylated human or mouse ST2.Fc for binding to FLAG® His-tagged human, cynomolgus or mouse IL-33.
Purified or unpurified anti-IL-33 antibody samples were tested for inhibition of FLAG®-His tagged IL-33 binding ST2-Fc by adding 10 microlitres of each dilution of antibody test sample to a 384 well low volume assay plate (Costar 3676). Next, a solution containing 4 nM biotinylated human or mouse ST2-Fc and 20 nM streptavidin XL665 detection (Cisbio International, 611SAXLB) was prepared and 5 microlitres of the mix added to the assay plate. This was followed by the addition of 5 microlitres of a solution containing 1.2 nM FLAG®-His tagged human, cynomolgus or mouse IL-33 combined with 1.72 nM anti-FLAG® cryptate detection (Cisbio International, 61FG2KLB). All dilutions were performed in assay buffer comprised of Dulbeccos PBS (Invitrogen, 14190185) containing 0.8 M potassium fluoride (BDH 103444T) and 0.1% BSA (Sigma A9576). Assay plates were incubated for 2 hour at room temperature followed by 16 hour at 4° C. before reading time resolved fluorescence at 620 nm and 665 nm emission wavelengths using an EnVision plate reader (Perkin Elmer).

His10/Avi Human IL33-01 [7] = biological target: T1, His10/Avi Human IL33-01; test: cell-based or functional assay
[8] = biological target: T6, Full-length human IL-33 (amino acids …); test: cell-based or functional assay
His10/Avi Human IL33-01 [9] = biological target: T1, His10/Avi Human IL33-01; test: HTRF epitope competition, IgG titrated; competitor DyLight labelled 33_640117 IgG; 1 hour
Protocol: (§4) As the epitope competition assay utilising 33_640027 reached its limit of sensitivity, an assay using 33_640117 was used for testing purified scFv samples. The assay was essentially as described for the 33v20064 competition assay with the following modifications: 2.5 nM DyLight labelled 33_640117 was prepared and 2.5 microlitres added to the assay plates. This was followed by the addition of 2.5 microlitres of a solution containing 0.12 nM biotinylated human IL-33-01 combined with 0.75 nM streptavidin cryptate detection (Cisbio International, 610SAKLB) for the human assay or a solution containing 0.24 nM biotinylated cynomolgus IL-33 combined with 1.5 nM streptavidin cryptate detection (Cisbio International, 610SAKLB) for the cynomolgus assay. Fluorescence was read after one hour and overnight incubation.
(§5) The ability of anti-IL-33 antibodies to inhibit the binding of biotinylated His Avi human IL-33 or cynomolgus His Avi IL-33 to the DyLight labelled 33_640117 IgG was assessed in a biochemical HTRF® (Homogeneous Time-Resolved Fluorescence, Cisbio International) competition assays as described above.

His10/Avi Cyno IL-33 = biological target: T7, His10/Avi Cyno IL-33; test: as above
Protocol: as §4, §5

His10/Avi Human IL33-01 [10] = biological target: T1, His10/Avi Human IL33-01; test: HTRF epitope competition, IgG titrated; competitor DyLight labelled 33_640117 IgG; overnight
Protocol: as §4, §5

| Binder | IC50 (nM) vs. His Avi IL-33, Huvec IL-8 assay (His10/Avi Human IL33-01 [1]) [nM] | IC50, Mast cell IL-6 production [2] [nM] | EC50 (Human IL-33 Flag®His [3]) [nM] | EC50 [4] [nM] | EC50 (Mouse IL-33 Flag®His) [nM] | IC50, Huvec IL-8 assay vs. His Avi IL-33 (His10/Avi Human IL33-01 [7]) [nM] | IC50, Huvec IL-8 assay vs. full length IL-33 cell lysate [8] [nM] | IC50 (His10/Avi Human IL33-01 [9]) [nM] | IC50 (His10/Avi Cyno IL-33) [nM] | IC50 (His10/Avi Human IL33-01 [10]) [nM] | other results |
| --- | --- | --- | --- | --- | --- | --- | --- | --- | --- | --- | --- |
| B1 | 0.105 | – | – | – | – | – | – | – | – | – | – |
| B2 | – | 1220 | 0.4 | 0.35 | 0.38 | – | – | – | – | – | – |
| B3 | – | 298 | 0.23 | 0.35 | 0.17 | – | – | – | – | – | – |
| B4 | – | – | – | – | – | – | – | – | – | – | IC50, human ST2 transfected HeLa NFkB luciferase reporter assay (Human IL-33 Flag®His [5]): 147 nM; IC50 (Human IL-33 Flag®His [6]): 40 nM |
| B5 | 0.041 | – | – | – | – | 0.025 | 0.073 | 0.1 | 0.2 | 0.1 | – |
| B6 | – | – | – | – | – | 0.046 | 0.101 | 0.2 | 0.3 | 0.2 | – |
